From a protein production outcome set (Wang et al. 2014)

Assay: label from the status in PepcDB records

Row | Sequence | protein production
1 | MTPPEIDFFPDFIADPHRLFNHLKDSVLWDERMRARKTASFGAPYDYSQITYPAVPMPEALEQLCGPIEQLLGFRPNNCLLNCYPDGHSSMGFHSDANEQLVTGTGVVIVSLGHARAMVFRHKESGATFDYSLASGSLLHMSDELQKHWLHAIPKAPDAGERISLSFRQLKTGLEHHHHHH | not failed
2 | MASRSASQASDALSQHGCPFSVRAKAFHGGRCMHELIGDITLSILFAWLLGLAAHFFRQPLILAYLIGGFVIGPFGLGWVKSENSISVISELGLIFMLFMIGLEIDLKKIIRAGPVILVAAGGQIAGGVLLGLAFFVGIGLSLGGGHFDALYLTVACALSSTVIIVKVLYEKRELDTLPGRITLGILVLQDIFAILFLAVQPSLADLQISVLLLSIARVVALVATALALSRYVLPWLFHRIARTPELVLLGALAWCFLIGEIAERLHLSREMGALVAGVSLSTFPYALDVTAKVTTLRDFFITLFFVALGMTIPIPNGSVIGLALAIAVFTLASRLLTTFLPLYLMKQGLRASLLPALNLAQISEFSLVVIQTGVAAGHIGTQTASAASFAFVLLAVLSTFVIMRSDPITRRAIGTLTKFGFRDLGQQQSGAEAAAEAGHGAVHRIVILGFFRAASALVSEIEQHTPELLKQISVIDFNPMVYRTLTERGMHVIYGDISNVDTLLHAGVAKAEIIILSVPDSLLKGATNERLVRHVRALNPNAQIVATADLLADVEAMYQAGADYVTVTRLADARELFEVIEAADNGLLSDKRAALDARLAERREVLP | failed
3 | GQDTGEDNLAIKGITTLNDLTMVNVSGPGMKGMVGMASRVFGAMSSAGVSIVLITQSSSEYSISFCIEADDKLKAQQVLADAFELELKDGLLEPVDFIDDVSIVTLVGDGMRTSRGVASRFFSSLAEVNVNIVAIAQGSSERAISAVIPEDKISEAIKACHENLFNSKYF | not failed
4 | ALQAGRLGSTVFVANLDYKVGWKKLKEVFSMAGVVVRADILEDKDGKSRGIGTVTFEQSIEAVQAISMFNGQLLFDRPMHVKMDERALPKGDFFPPERPQQ | not failed
5 | IIAWLGPQLRELTPVDTNKDPKTRLQEFLQSRGCDLPRYEVVDIQGEPHCRTFFVDCEVALLSDKTHGHGGSRRIAEQVAAAAALVALGVENGHD | failed
6 | MVLLMAVSLSFAQMKNVKEAKSIASDVKPNFNQAEKLINEAIKNPETKDLPDTWDVAGFIQKRFIEEERDKKGVLKQPFDTLKAYNSILKMFEYYTKCDDLAQVPNEKGKIKNKYRKANASTILVERPNLINGGIQFFNLDKNKEALQFFATYVESASYPMLAEQNLAKTDTLLAQIAYYATLAADRVGDKDAIIKYAPAALDDKDGGKFAMQLMADAYKAKGDTAAWVKSLEEGILKFPGNDYFFANLVDYYTSSNQASKAMEFADRMLSTDANNKLYLYVKAYLYHNMKEYDNAIEFYKKAIAADPEYAEAYSNVGLVYLMKAQDYADKATTDINDPKYAEAQATVKKFYEEAKPFYEKARALKPDQKDLWLQGLYRVYYNLNMGPEFEEIDKMMK | failed
7 | MGQPSDLTESTLRFSSLDPLHPPVISQLTAIAKRIRRNSLHLPTIWQEAVDSIGSTLGVSRCLLLTKDFQSRHLQIEAEFCQPTVTAFAALIVPEESEIWRQLFEQHQPITLYNVQFQGEDLGGLWIFPTLYQDQANGYLCLQQVGPAPGPWHPETEALLQELAEQTGTAIAHATLYQELTQATKAAEEASRLKSEFLASTTHELRTPLNGIIGFLRLILDDMADSEAEKHEFVEEAYQSALLLLNLINDILDLAKIEAGRVGIELEVVDFSEVLQATENFALPQAQNKGLSFNLTAPNQGPLLVYGNQRWLLQVMLNIVGNAIKFTHEGGITVAVEVMPRTVLWEGVQKPGLLKVSVGDTGIGVSLEQQSKLFKKFVQIDGSHSKAYGGTGLGLVISQKLVETMGGKVAFFSMGEGLGSTVTFTVLLEELP | failed
8 | MNYQDVLDFWFAPDHTNFWFAKDSLFDDEIRTQFSTVHQQATQAELWSWRQTVEGRLAEIIVLDQFSRNLYRDQAQAFAQDSMALALAQEAITQQLDAQLSPEQRSFLYMPFMHSESKLIHEFALKLFQKLGNEINLSFEKKHKVIIDQFGRYPHRNAILGRQSTPEELEFLTQPNSHF | failed
9 | SNRQVQLMARQQRLKAIEDRLEKFYIPLIKAFSSYVYTAQTEDEIETIITCRRYLAGNNLLRVLPMHFKFKADKIAGSANWTFYAKEDFEQWKEALDVLWEEFLEVLKEYYTLSGTEISLPEKPDWLIGYK | not failed
10 | MQELSPAELGEQVQDDDGPLVLDIRHEEDFQEWHIPGSRNVDVYDELTDDPEQAIEPLDDLPSDEQIVTVCAAGVVSQTATAVLRELGYDAVTLTDGMNGWSRVHRHAELPVDVDGTLVQVARPGKGCLSHVLVSDGEAAVFDPSHYLNEYDTVLDEYDAELVGVFDTHAHADHVSGAADLADRHDVPYYLHQKDALAVDATPLEDGQTVTVGRLDIEVIHTPGHSEGSVSFDVEGAALLTGDTLFHDSVGRVELGVEAGIEDADVEGNAATLYESLQRLLDRPDDALVLPAHDPGSPEPPVAATLAEVRERNDDLGRDREAFVEELASDIPDHPPNFERVKRTNVGQESVPEEELAELELGPNNCAAE | failed
11 | MSDEHRFSRLRPLSLGLLAPLAVLLTGCGGPNLIERLSIGNWGFWGTVIIVLDLVALVDLLGDGTRSTTSTVVWALLIVFAPVLGVILYFIFGRE | failed
12 | MMNETLKVIAERYSCRDFKNEMPSDELLQAIAEAAIQAPSGMNRQAWRVIVVKNKELMQEMEAEGLAYLAGMEDQSSYNRIMERGGRLFYGAPCMIVVPIDPTQYGPALVDCGILCQTIALAATSLGIANIMCGYTGLAFASGLRAEEFSKRLGFPEGYAFGCSVLLGHANTTKPPHVPDKDKITYVE | not failed
13 | MSLKEFKIGWFATILGTGGVAIASLPYFPVLSVVLTYLLTAIFVILTAVWLAKIIRYPRVVAAELGHFVMGNFYPLQPISAVILAILYRKLGIPLDLPLLAYGAGLILVLTVYLSYHFFANVKAEIHHIHGGWFIPPVSTILVTDALLQYSPNETFFVTSLIYFGIGLMLFLFISTILFLRLVNHELPVFELAPTNFILLAPIGILIVDFTLIAKHAEAIFSANLVPLALIASISLWGFGLWALAVNILLLLRYLRQEMPFFLGWWSYVFPTAAYTLSTIALSHFVPVFSYAATALYAFLIAAWAIIGVRTVGIAIRGA | failed
14 | MKIRVADEKELPMILQFLTEVKAYMDVVGITQWTKDYPSQGDIQEDITKKRLYLLVHEEMIFSMATFCMEQEQDFVWLKRFATSPNYIAKGYGSLLFHELEKRAVWEGRRKMYAQTNHTNHRMIRFFESKGFTKIHESLQMNRLDFGSFYLYVKELENQSIV | not failed
15 | MFFLSDHDTLISSIEAIGASFAVFEFDPQSVAFELVSCNSRYEDLMGYSSAKALGQPLTTIFPRYIHNPLKEAFIHCKNERIALETEIVLDYKGQERCWRSIVSPIVNSADEKFRIIQTCVEITEKKVLEKQLNLSMKRFEAVVNNAYDGIITIDEQQNVKLFNEAAQSMFGYSEQEIMGQPLTKLLPEKYQAKHHGYVEGFKRSQVDSRPMQTRAAVQGLRKDGSEFAIEVTISKIRIADNVEFTAVIRDISEKNQLLEELILSSRRDPLTELYNRRYFTELLHSEITRSRRFKRGFSLLMLDIDHFKSINDRYGHACGDAALIAFSKAVTNSIREVDTICRWGGEEFLVLLPEIPKVTAMVVAEKIRKNIENLETIYEGDLIKVTVSIGLEYFSGDAIEMSSMINKVDQILYRAKDTGRNKISTEI | failed
16 | TSTFYELFPKTFPKKLPIWTIDQSRLRKEYRQLQAQHHPDMAQQGSEQSSTLNQAYHTLKDPLRRSQYMLKLLRNI | failed
17 | DDLEVGKNIDESAYSGIYENNAYLRDGKSNLVSKVVELHGETYATTVKMGLSKTPNTATSAKVKIDAAYLETYNKAHNTDFALYPQDLVTFANEGILTVNANTKSAEVEMTIRAGEGLQEDKTYAIPVAISDQSSDITIKDEDAKHCIYLVKDMRNAGDAYKGEGVMQGYLFFEVNDVNPLNTLSFQLENGKLLWDVVVLFAANINYDAEAGRPRVQCNPNVQYLLDNNETLLQPLRRRGVKVLLGLLGNHDITGLAQLSEQGAKDFAREVAQYCKAYNLDGVNYDDEYSNSPDLSNPSLTNPSTAAAARLCYETKQAMPDKLVTVFDWGQMYGVATVDGVDAKEWIDIVVANYGSAAYPIGQMTKKQCSGISMEFNLGGGGSLSASKAQSMIDGGYGWFMGFAPSPAKYGSVFSRLQGGGEVLYGSNVAAPTIFYKKNDPTPYKYPDDL | not failed
18 | MIMFNYQQTSQSCVKCGKCIPSCTIYNIHPDEVTSPRGFIDLLGAYQRGELELDKNAKDIFEKCFLCTNCTYVCPNLLPTDQVIENVRAEIAQKFGIAWFKRAYFFLLRNRWLMDWGFALGSVFTPLLFKNLPKHQSVKPRFKLPLIGERVFMWLRFKSFMESYPEETLNSDRENPRRVAIFIGCLANYNYTKIGDSLMEILKELRIDAFIPKKQQCCGAPAYFTGDFPTVDKLIKQNVTYFESFIDEVEAIIIPEATCSAMILEDWERFMHNQPEWRERIARLLPKIFIASDWLYHKTDLLKRLEALSVKMDKSITYHDPCHARKVLGVFKEPRALLGANYKIVEMSDPNQCCGFGGVTLQTEKYQYSKKVGIAKTKMIQETGAKIVSAECSACRMQLTNALDHEKIDVEFAHPLELIAEALKARG | failed
19 | IEFESRTTDEGVAVVRPAGRLNMVAAPRLRELLRDVVDGGTTCVVVDLSATDFIDSSGLGALIAGLKAARQAGGDLRIAQPTEQVETVLALTNLNRVLRTHDSVDAAFD | failed
20 | MKGKLQNIHPLGMTIIIGTLFARFATSMSIPFLAIYLTTVKGVSAGMTGAIIGTSALVGVFASFIGGNLSDRFGRKMIMLWSMIVWMFVFIGFSLADHVLSFFLLNALNGLCRSFFEPTSRALLSDLTKPEYRLLVYNLRYGAINVGVAIGPIVGLQIGSAKSTIPFLVAAGVYILYTAILAFQFKKYPMEKKKVSTEKPVTMLNAMRILRKDIVFLVALVGIILSNCGFSHLTTTVSQYFANAHIFQDGVKVFSYMLALNAIVVVVIQYPVIQICKKYTPLVSIMVGTLFVSGGLFGFGIIESTLGAAICTIIFTIGEVLMFSMTDVFIDDIAVAHLKGTYFGAMGFSGIGAVIGPWFGGVLLDYYGYQNGFVVFSALAIFSTVAFPVLLVTKSLLKKRYDGNSNIELHAK | failed
